He/Con_2aR data for 25 molecules are collected here from patent US20150344570A1 (published 2015).

T1: FcγRIIa R (human, UniProt P12318 34-217)
T1 construct: extracellular domain; also called FcgRIIa R type; 2aR
T1 sequence (looked up): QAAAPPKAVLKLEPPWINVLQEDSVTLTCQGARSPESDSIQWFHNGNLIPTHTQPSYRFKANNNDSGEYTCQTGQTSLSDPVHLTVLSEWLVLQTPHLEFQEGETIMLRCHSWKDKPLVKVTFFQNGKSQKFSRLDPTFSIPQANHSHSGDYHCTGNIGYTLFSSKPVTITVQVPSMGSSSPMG

B1: GpH7-A5/GpH7-B3 variant N325_10E/GpL16-k0 (antibody, human IgG1, kappa)
heavy 1: not shown
heavy 2: not shown
light: DIVMTQSPLSLPVTPGEPASISCQASESLVHSNRNTYLHWYLQKPGQSPQLLIYKVSNRFSGVPDRFSGSGSGTDFTLKISRVEAEDVGVYYCSQNTHVPPTFGQGTKVEIERTVAAPSVFIFPPSDEQLKSGTASVVCLLNNFYPREAKVQWKVDNALQSGNSQESVTEQDSKDSTYSLSSTLTLSKADYEKHKVYACEVTHQGLSSPVTKSFNRGEC
notes: also called He Ab N325_10E
B2: GpH7-A5/GpH7-B3 variant N325_03V/GpL16-k0 (antibody, human IgG1, kappa)
heavy 1: not shown
heavy 2: not shown
light: B1 light
notes: also called He Ab N325_03V
B3: GpH7-A5/GpH7-B3 variant P331_03V/GpL16-k0 (antibody, human IgG1, kappa)
heavy 1: not shown
heavy 2: not shown
light: B1 light
notes: also called He Ab P331_03V
B4: GpH7-A5/GpH7-B3 variant K334_20W/GpL16-k0 (antibody, human IgG1, kappa)
heavy 1: not shown
heavy 2: not shown
light: B1 light
notes: also called He Ab K334_20W
B5: GpH7-A5/GpH7-B3 variant N325_15Y/GpL16-k0 (antibody, human IgG1, kappa)
heavy 1: not shown
heavy 2: not shown
light: B1 light
notes: also called He Ab N325_15Y
B6: GpH7-A5/GpH7-B3 variant N325_08L/GpL16-k0 (antibody, human IgG1, kappa)
heavy 1: not shown
heavy 2: not shown
light: B1 light
notes: also called He Ab N325_08L
B7: GpH7-A5/GpH7-B3 variant N325_06M/GpL16-k0 (antibody, human IgG1, kappa)
heavy 1: not shown
heavy 2: not shown
light: B1 light
notes: also called He Ab N325_06M
B8: GpH7-A5/GpH7-B3 variant L328_10E/GpL16-k0 (antibody, human IgG1, kappa)
heavy 1: not shown
heavy 2: not shown
light: B1 light
notes: also called He Ab L328_10E
B9: GpH7-A5/GpH7-B3 variant L235_20W/GpL16-k0 (antibody, human IgG1, kappa)
heavy 1: not shown
heavy 2: not shown
light: B1 light
notes: also called He Ab L235_20W
B10: GpH7-A5/GpH7-B3 variant N325_20W/GpL16-k0 (antibody, human IgG1, kappa)
heavy 1: not shown
heavy 2: not shown
light: B1 light
notes: also called He Ab N325_20W
B11: GpH7-A5/GpH7-B3 variant N325_07I/GpL16-k0 (antibody, human IgG1, kappa)
heavy 1: not shown
heavy 2: not shown
light: B1 light
notes: also called He Ab N325_07I
B12: GpH7-A5/GpH7-B3 variant P331_02A/GpL16-k0 (antibody, human IgG1, kappa)
heavy 1: not shown
heavy 2: not shown
light: B1 light
notes: also called He Ab P331_02A
B13: GpH7-A5/GpH7-B3 variant P238_09D/GpL16-k0 (antibody, human IgG1, kappa)
heavy 1: not shown
heavy 2: not shown
light: B1 light
notes: also called He Ab P238_09D
B14: GpH7-A5/GpH7-B3 variant N325_13S/GpL16-k0 (antibody, human IgG1, kappa)
heavy 1: not shown
heavy 2: not shown
light: B1 light
notes: also called He Ab N325_13S
B15: GpH7-A5/GpH7-B3 variant P238_16H/GpL16-k0 (antibody, human IgG1, kappa)
heavy 1: not shown
heavy 2: not shown
light: B1 light
notes: also called He Ab P238_16H
B16: GpH7-A5/GpH7-B3 variant K334_10E/GpL16-k0 (antibody, human IgG1, kappa)
heavy 1: not shown
heavy 2: not shown
light: B1 light
notes: also called He Ab K334_10E
B17: GpH7-A5/GpH7-B3 variant L328_02A/GpL16-k0 (antibody, human IgG1, kappa)
heavy 1: not shown
heavy 2: not shown
light: B1 light
notes: also called He Ab L328_02A
B18: GpH7-A5/GpH7-B3 variant P271_08L/GpL16-k0 (antibody, human IgG1, kappa)
heavy 1: not shown
heavy 2: not shown
light: B1 light
notes: also called He Ab P271_08L
B19: GpH7-A5/GpH7-B3 variant N325_09D/GpL16-k0 (antibody, human IgG1, kappa)
heavy 1: not shown
heavy 2: not shown
light: B1 light
notes: also called He Ab N325_09D
B20: GpH7-A5/GpH7-B3 variant L234_09D/GpL16-k0 (antibody, human IgG1, kappa)
heavy 1: not shown
heavy 2: not shown
light: B1 light
notes: also called He Ab L234_09D
B21: GpH7-A5/GpH7-B3 variant L328_13S/GpL16-k0 (antibody, human IgG1, kappa)
heavy 1: not shown
heavy 2: not shown
light: B1 light
notes: also called He Ab L328_13S
B22: GpH7-A5/GpH7-B3 variant P238_15Y/GpL16-k0 (antibody, human IgG1, kappa)
heavy 1: not shown
heavy 2: not shown
light: B1 light
notes: also called He Ab P238_15Y
B23: GpH7-A5/GpH7-B3 variant K334_13S/GpL16-k0 (antibody, human IgG1, kappa)
heavy 1: not shown
heavy 2: not shown
light: B1 light
notes: also called He Ab K334_13S
B24: GpH7-A5/GpH7-B3 variant N325_14T/GpL16-k0 (antibody, human IgG1, kappa)
heavy 1: not shown
heavy 2: not shown
light: B1 light
notes: also called He Ab N325_14T
B25: GpH7-A5/GpH7-B3 variant P238_20W/GpL16-k0 (antibody, human IgG1, kappa)
heavy 1: not shown
heavy 2: not shown
light: B1 light
notes: also called He Ab P238_20W

The target of this assay is T1, FcγRIIa R. Nature of the assay: SPR (Biacore), captured antibody, FcγR as analyte; relative binding activity. For orientation: In SPR one partner is held on a chip, and binding of the other changes the refractive index at the surface.
For B1, the He/Con_2aR is 105 % (GpH7-A5/GpH7-B3/GpL16-k0 = 100). As for B2, the He/Con_2aR was 108 % (GpH7-A5/GpH7-B3/GpL16-k0 = 100). For the molecule B3, the He/Con_2aR is 114 % (GpH7-A5/GpH7-B3/GpL16-k0 = 100). Then B4, with 105 % (GpH7-A5/GpH7-B3/GpL16-k0 = 100); and B5, with 101 % (GpH7-A5/GpH7-B3/GpL16-k0 = 100). For the molecule B6, the He/Con_2aR was 144 % (GpH7-A5/GpH7-B3/GpL16-k0 = 100). For B7, the He/Con_2aR is 152 % (GpH7-A5/GpH7-B3/GpL16-k0 = 100).

On to B8, for which the He/Con_2aR is 105 % (GpH7-A5/GpH7-B3/GpL16-k0 = 100).

For B9, the He/Con_2aR was 131 % (GpH7-A5/GpH7-B3/GpL16-k0 = 100). With B10 the figure was 134 % (GpH7-A5/GpH7-B3/GpL16-k0 = 100). With B11 the figure was 133 % (GpH7-A5/GpH7-B3/GpL16-k0 = 100); with B12, 106 % (GpH7-A5/GpH7-B3/GpL16-k0 = 100); with B13, 148 % (GpH7-A5/GpH7-B3/GpL16-k0 = 100). Then B14, with 143 % (GpH7-A5/GpH7-B3/GpL16-k0 = 100); and B15, with 122 % (GpH7-A5/GpH7-B3/GpL16-k0 = 100). Take B16: the He/Con_2aR was 106 % (GpH7-A5/GpH7-B3/GpL16-k0 = 100). In the case of B17, the He/Con_2aR is 117 % (GpH7-A5/GpH7-B3/GpL16-k0 = 100). On to B18, for which the He/Con_2aR was 104 % (GpH7-A5/GpH7-B3/GpL16-k0 = 100). With B19 the figure was 116 % (GpH7-A5/GpH7-B3/GpL16-k0 = 100); with B20, 122 % (GpH7-A5/GpH7-B3/GpL16-k0 = 100). For B21, the He/Con_2aR is 117 % (GpH7-A5/GpH7-B3/GpL16-k0 = 100). Then B22, with 156 % (GpH7-A5/GpH7-B3/GpL16-k0 = 100); and B23, with 109 % (GpH7-A5/GpH7-B3/GpL16-k0 = 100). Then B24, with 105 % (GpH7-A5/GpH7-B3/GpL16-k0 = 100); and B25, with 117 % (GpH7-A5/GpH7-B3/GpL16-k0 = 100).
